Data: the nanobody polyreactivity screen of Harvey et al. (2022)

Test: yeast display, Sf9 membrane polyspecificity reagent, FACS + sequencing; frameworks hold sequencing errors
Procedure, shortened: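 Nanobodies from a synthetic yeast display library (Saccharomyces cerevisiae BJ5465), induced 36–48 hours with galactose, were stained 1 hour at 4 °C with 10% biotinylated, detergent-solubilized Sf9 membrane reagent, enriched on streptavidin microbeads, then FACS-sorted. Anti-HA (expression) and streptavidin (reagent binding) fluorescence set low and high (top ~1%) gates. Polyreactivity labels come from the gate of origin. Genes were colony-PCR amplified, MiSeq 2 × 250 sequenced and filtered by CDR length.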

| Sequence | polyreactivity (PSR sort gate) |
| --- | --- |
| QVQLVESGGGLVQAGGSLRLSCAASGRIFQYYTMGWYRQAPGKERELVAAISYGGGSTYYADSVKGRFTISRDHAKNTVYLQMNSLKPEDTAVYYCNAVTYSRRYAYYYWGQGTQVTVSS | high polyreactivity |
| QVQHVESGGGLLQAGGSLRLSCAASGITFFEYAMGWYRQAPGKERELVAVITSVGSTNYADSVKGRFTISRDNAKNTVYLQMNSLKPVDTAVYYCNARLVKYRWWYDYYYWGQGTQVTVSS | low polyreactivity |
| QVQLVESGGGLVQAGGSLRLSCADSGLTFRRYAMGWYRQAPGKERELVAAITRGGSTNYADSVKGRFTISRVNAKNTVYLQMNSLKPEDTAVYFCAAVYSTRSTSYWMDYWGQGTQVTVSS | high polyreactivity |
| QDQLVESGGGLVQAGGSLRLSCAASGRTFTTNDMGWYRQAPGKEWELVAGISWSGGSTFYADSVKGRFTISRDNAKNTVYLQMNSLKPEDTAVYSCATSARSYQSAYGHYTWYDYWGQGTQVTVSS | low polyreactivity |
| QVQLVESGGGLVQAGGSLRLSCAASGRILTGYAMGWYRQAPGKARELVAAISNDTDSTHYADSVKGRFTISRDNAKNTVYLQMNSLKPEDTAVYYCATDAPLQKRWRRFDYWGQGTQVTVSS | low polyreactivity |
| QVQLVESGGGLVQAGGSLRLSCAASGRIFVKYAMGWYRQATGKERELVAAISKSGGSTYYADSVKGRFTISRDNAKNTVYLQMNSLKPEDTAVYYCATRSRDQYSVSYRLDYWGQGTQVTVSW | low polyreactivity |
| QVQLVESVGGLVQAGGSLRLSCAASGRTFAPNFMGWYRQAPGKERELVAAITYSSASTYYADSVKGRFTISRDNAKNTVYLQMNSLKPEDTAVYYCAARDRYYFGGMYYWGQGTQVTVSS | low polyreactivity |
| QVQLVESGGGLVQAGGSLRLSCAASGIFFPNAMGCYRQAPGKERELVAAISWTGGSTFYADSVKGRFTISRDNAKNTVYLQMNSLKPEDTAVYYCAAEEYYAGWTYDYWGQGTQVTVSS | high polyreactivity |
| QVQLVESGGGLVQAGGSLRLSCAASGRIFNWYRMGWYRQAPGKERELVAAISRGGGRTYYADSVKGRFTISRDNAKNTVYLQMNSLKPEDTAVYYCNAVDASHAGPVGGAFRYDYWGQGTQVTVSS | high polyreactivity |
| QVQLVESGGGLVQAGGSLRLTSAASGRTFTSNVMGWYSQAPGKEWEVVAAISSSGGRTYYADSVKGRFTISRDNAKNTVYLQMNSLKPEDTAVYYCAGDGDPEYPRYGYWGKGTQVTVSS | high polyreactivity |
| QVQLVESGGGLVQAGGSLRLSCAASGSTFPPYVMGWYRQAPGKERELVAAITWSSGSTYYADSVKGRFTISRDNAKNTVYLQMNSLKPEDTAVYYCAARAYRWGQGTQVTVSS | low polyreactivity |
| QVQLVESVGGLVQAGGSLRLSCAASGRRTIRYNAMGWYRQAPGKEREFVASISRSGGSTYYADSVKGRFTISRDNAKNTVYLQMNSLKPEDTAVYYCAAAASHLVAYGWGYEYYYWGQGTQVTVSS | high polyreactivity |
| QVQLVESGGGLVQAGGSLRLSCAASGFIFADNPMGWYRQAPGKERELVAGITSGGITNYADSVKGRFTISRDNAKNTVYLQMNSLKPEDTAVYYCAVYYRRWFSRYDYWGQGTQVTVSS | low polyreactivity |
| QVQLVESGGGLVQAGGSLRLSCAASGLTFQRYAMGWYRQAHGKERELVAAISYRGSRTYYADSVKGRFTISRDNAKNTVYLQMNSMKPEDSAVYYCNKVRTGYGVTYLVGYWGQGTHVTVSS | high polyreactivity |
| QVQLVESGGGLVQAGGSLRLSCAASGSIFVRYDMGWYRQAPGKERELVAAISWNGGRTYYADSVKGRFTISRDNAKNTVYLQMNSLKPEDTAVYYCNAVSKGLGSGLDYWGQGTQVTVSS | high polyreactivity |
| QDQHVETGGGLVQAGGSLRLSCAASGSIFFLYMGWYRKAHGKETELVATISSGGSTNYADSVMGRFTISRDNAKHTVYLQMNSLKPVATAVYYFNARGSERLDTYSLYDYWGQGTQVTVSS | low polyreactivity |
| QVQLVESGGGLVQAGGSLRLSCAASGSIFVHYAMGWYRQAPGKERELVASISTSGGRTRYADSVKGRFTISRDNAKNTVYLQMNSLKPEDTAVYYCAALRWGRRYDYWGQGTQVTVSS | high polyreactivity |
| QVQLVESGGGLVQVGGSLRLSCAASGITLTYYALGWYRQAPGKERELVAAIDSGGTTHYADSVKGRFTISRDNAKNTVYLQMNSLKPEDTAVYYCAARPTRGHWWYGYWGQGTQVTVSS | low polyreactivity |
| QVQLVESGGGLVQAGGIHRLSCASTGRTFPAYAMGWYRQAPGKERELVAAITINGGYTYYADSVKGRFTISRDNAKNSVYLQMKSLKPEDTAVYYCAAYYDSPSHGYWGQVTQVTVSS | low polyreactivity |
| QVQLEDSGGGLVQAGGSLRLSCAASGSIFILNTMGWYREAPGKERELVAGISYSGSTYYADSVKGRFTISRDNAKNTVYLQMNSLKPEDTAVYYCAADYGAAWYNDGYYYWGQGTQVTVSS | low polyreactivity |
| QFQLVESGGGLVQAGGSLRLSCAASGRIYGLYAKGWYRQAPGKERELVAAISSTGGRTFYADSVKGRFTISRDNAKNTVYFQMNSLKPDDTAVYYCAAYRYSRYRQRYNYCGQGTQVTVSS | high polyreactivity |
| QVQLVESGRGLVQAGGSLRLSCAASGRTFGYYAMGWYIQAPGKERELVAAISYSGGSTYYADSVKGRFKISRDNAKNTVYLQMNSLKPEDTAVYYCAAYLRRYPWYDYWVQGTQVTVSS | high polyreactivity |

| Sequence | polyreactivity (PSR sort gate) |
| --- | --- |
| QVQLVESGGGLVQAGGSLRLSCAASGFILKYYAMGWYRQAPGKERELVAAISSSGGRTYYADSVKGRFTISRDNAKNTVYLQMNSLKPEDTAVYYCAARVIASRGRYGYWGQGTQVTVSS | high polyreactivity |
| QVQLVESGGGLVQAGGSLRLICAASGSTFYDNTMGWYRQAPGKERELVAAISSGGGTYYADSVKGRFTISRDNAKNTVYLQMNSLKPEDTSVYYCNADQTAYGKPGRAYGFDYWGQGTQVTVSS | low polyreactivity |
| QVQLVESGGGLVQAGGSLRLSCAASGSIFVGHAMGWYRQAPGKERELVATISRSGGSTYYADSVKGRFTISRDNAKNTVYLQMNSLKPEDTAVYYCAKTPYRRYSYGGYTYRTYDYWGQGTQVTVSS | low polyreactivity |
| QVQLVETGGGLVQAGGSLRLSCAASGIIFGGYDRGWYRQAPGKERELVAAISWSGGSTYYAASVKGRFTISRDNAKNTVYLEMNSLKPEDTAVYYCAAAYYAPTRDYYYWGQGTQVTVSS | low polyreactivity |
| QVQLVESGGGLVQAGGSLRLSCAASASTFYSYTMGWSRQAPGKERELVAAISRSGGRTYYADSVKGRFTISRDNAKNTVYLQMNSLKPEDTAVYYCAARWLGVDDYEYWGQGTQVTVSS | high polyreactivity |
| QVQLVESGGGLVQAGGSLRLSCAASGFIFAYYAMGWYRQAPGKERELVAAISSRGGTYYADSVKGPFTISRDNAKNTVYLQMNSLKPEDTAVYYCAAASYTWVSLGYEYWGQGTQVTVSS | high polyreactivity |
| QVQLVESGGGLDQAGGSLRLSCAASGRILGYNALGWYRQAPGKERELVAAIRTGTTNYADSVKGRFTISRDNAKNTVYLQMNSLKPEDTAVYYCAALRPYNEGSSHLFRYDYWGQGTQVTVSS | low polyreactivity |
| QVQLVESGGGLVQAGGSLRLSCAASGLTFKYYAMGWSRQAPGKESELVAAITSTGGRTYYADSVKGRFTISRDNAKNTVYLQMNSLKPEDTAVYYCAAYYVGSSKYDSWGQGTQVTVSS | low polyreactivity |
| QVQLVESGGGLVQAGGSLRLSCAASGFSFRVYTMGWYRQAPGKERELVAAISYRGGRTYYADTVKGRFTISRDNAKNNVYLQMNSLKPEDSALYYCAATAIYPSAWRMDYWGQGTLVTVSS | high polyreactivity |
| QVQLVESGGGLFQAGGSLRLSCAASGSTLWRNAMGWYRQATGKERELVAAITRRGGITYYADSVKGRFTISRDNAKNTVYLQMNSLKPEDTAVYYCNAVRSTDGSDYWGQGTQVTVSS | high polyreactivity |
| QVQLVESGGGLVQAGGSLRLSCAASGRIFGTYVMGWYRPAPGKERELVARITGGGSTNYADSVKGRFTISRDNAKNTVYLEMNSLKPEDTAVYYCARDYGPYLSPEKPAPMDYWGQGTQVTVSS | low polyreactivity |
| QVQLVESGGGLVQAGGSLRLTCAASGRTFGHYAMGWYRQAPGKERELVAAISQRGGGTYYADSVKGRFTISRDNAKNTVYLQMNSLKPEDTAVYYCAADFGNSPYIKDYYYWGQGTQVTVSS | low polyreactivity |
| QVQLVESGGGLVQAGGSLRLSCAASGSISKINAMGWYRQAPGKERELVAAINTGDSTYYADSVKGRFTISRDNEKNTVYLQMNSLKPEDTAVYYCAAEGSPTGYDYWGQGTQVTVSS | low polyreactivity |
| QVQLVESGGGLVQAGGSLRLSCAASGSIFYQNAMGWYRQAPGKEREFVAAIRSSGSSTYYADSVKGRFTISRDNAKNTVYLQMNSLKPEDTAVYYCAAPSSRGQGRNFDYWGQGTQVTVSS | high polyreactivity |
| QVQHVESGGGLVQAGGSLRLSCAASGRTFYNYAKGWYRQAPGKERELVAGITSCGGSTYYADSVKGRFTISRDNAKNTVYLQMNSLKPEDTAVYYCARVWPSQKHYYWGQGTQVTVSS | high polyreactivity |
| QVQLVESGGGLVQAGGSLRLSCAASGSTFIDYAMGWYRQAPGKERELVAAITNGGNTKYADSVKGRFTISRDNAKNTVYLLMISLNPEDTAVYYCAREPSIFTPSYDYWGQGTQVTVSS | low polyreactivity |
| QVQLVESGGGLVQAGGSLRLSCAASGRIFGKYAMGWYRQAPGKERELVAVITSRDGRTYYADSVKGRFTISRDNAKNTVYLQMNSLIPEDTAVYYCAADYWTGITPDAIGDYWGQGTQVTVSS | low polyreactivity |
| QVQLVESGGGLVQAGGSLRLSCAASGRTFIPYAMGWYRQAPGKERELVAAISWSGGGTYYADSVKGRFTISRDNAKNTVYLQMNSLKPEDTAVYYCAAEYWDSYGYWTFDYWGQGTQVTVSS | high polyreactivity |
| QVQLVESGGGLVQAGGSLRLSCAASGSIFYRNAMGWYRQAPGNERELVAAITSGASTYYADSVKGRFTISRDNAKNTVYLQMNSLKPEDTEVYYCAADSDSQWGMDYWGQGTQVTVSS | low polyreactivity |
| QVQLVESGGGLVQAGGSLRLSCAASGIIFSDYAMGWYRQAPGKERELVAAITGGGSTYYADSVKGRFTISRDNAKKTVDLQMNSLKPEDTAVFYCNADWARLWIRSTEVDYWGQGSQVTVSS | low polyreactivity |
| QVQLVESGGGLVQAGGRLRLICAASASNFAGYDKGWYRQAPGKERELVAAITSGGDTYYADSVKGRFTISRDNAKNTGYLQMNSLKPEDTAVYYCNKDYILARYGGGRDYWGQGTQVTVSS | low polyreactivity |
